The source of these data is patent publication US8697648B2, “Protein agent for diabetes treatment and β cell imaging” (Georgia State University Research Foundation, Inc., priority 2009, dated 2014).

Data set [1] in a line: Protein serum stability test in mice serum (SDS-PAGE). Conditions: mice serum 1:1, 37° C., 24 hrs. The class given is in vitro ADME. The procedure: FIG. 5 is a digital image of a gel analysis of a protein serum stability test. A 16% SDS-PAGE without DTT was used to analysis the protein level after incubation with mice serum for certain time. Lane 1: mice serum only; Lane 2: fusion protein only; Lanes 3-5: fusion protein incubated with 50% serum for 1 hr, 3 hrs, and 24 hrs respectively; Lane 6: PEGylated protein only; Lanes 7-9: PEGylated protein incubated with 50% serum for 1 hr, 3 hrs, and 24 hrs respectively.
The fusion protein and PEGylated protein were incubated with mice serum at a ratio 1:1, in 37° C. for 1 hr, 3 hrs and 24 hrs. Samples were then analyzed by 16% SDS-PAGE.
The fusion protein and PEGylated protein were incubated with mice serum at a 1:1 ratio at 37° C. for 1 hr, 3 hrs, and overnight. SDS-PAGE was then used to analyze the protein stability.

Data set [2] is described as follows: Stability in 75% human serum (SDS-PAGE). Conditions: 48 hour. The format is in vitro ADME. The method, then: FIG. 7 is a digital image of an SDS-PAGE analysis of serum stability of the fusion protein Cal.GLP. […] Cal.GLP was incubated with 75% human serum (S+CA) in […] at 37° C. for 1 hour (lane 3), 3 hours (lane 4), and 24 hours (lane 5). The mixture was separated by 16% SDS-PAGE and visualized by coomassie blue staining. Lane 1 is 75% human serum (S) and lane 2 is Cal.GLP only (CA). Lane M is molecular weight markers.
(§1) The fusion protein Cal.GLP was incubated with 75% human serum for a time course (up to 48 hrs). The protein was then analyzed by SDS-PAGE and stained by coomassie blue.

Data set [3] is described as follows: NMR and fluorescence spectrum analyses in different pH conditions. The class given is physicochemical. Conditions: pH 3, 5, 7, 9, 10. The procedure:
FIG. 8 is a graph showing the fluorescence spectrum of the protein Cal.GLP (50 μM) at various pH values. The spectrum at each pH was compared to that of completely denatured Cal.GLP in 8M Urea.
as §1

A short description of data set [4]: Stability to boiling. The class given is physicochemical. The following applies: boiling for 10 minutes. The procedure: This property led to a simplified one ion-exchange column chromatography procedure of protein purification. The bacterial lysate was boiled for 10 minutes. Most bacterial proteins were precipitated due to denaturing by boiling. The fusion protein stayed in supernatant. The protein was then further purified by an ion-exchange column. Approximately 30-50 mg purified fusion protein per liter of bacterial culture were obtained.

Data set [5] deals with RINm5F cells. Put plainly: Immunostaining binding analysis, RINm5F cells (GLP-1R expressed). The following applies: Cal.GLP 10 μM, calbindin D9k 50 μM, 37° C., 30 mins. The class given is cell-based, rat. The procedure: (§2) FIG. 10 is a series of digital images showing immunofluorescence staining of CHO or RINm5F cells that were treated by calbindin (50 μM) and Cal.GLP (10 μM). The cells were extensively washed after 30 min treatments under 37° C. in microscopic chamber slides and subsequently fixed. The cells were stained with the calbindin-specific antibody and visualized under confocal microscopy. The light shading represents antibody staining.
(§3) To examine whether the developed protein indeed interacted with GLP-1R, the binding of the fusion protein with two cell lines, RINm5F and CHO cells was examined. It is well known that GLP-1R is expressed in RINm5F but not in CHO cells. Both RINm5F and CHO cells were incubated with fusion protein Cal.GLP (10 μM) or calbindin D9k (50 μM) at 37° C. for 30 mins. After extensive washing, the cells were fixed and subjected to immunostaining analyses using a rabbit polyclonal antibody against parental protein calbindin D9k. […] Similar binding analyses were carried out with RINm5F cells and a […] (αTC1).

For data set [6], the system named is CHO cells. Put plainly: Immunostaining binding analysis, CHO cells (no GLP-1R). The class given is cell-based. The following applies: Cal.GLP 10 μM, calbindin D9k 50 μM, 37° C., 30 mins. The procedure:
as §2, §3

Data set [7] relates to αTC1 cells. Put plainly: Immunostaining binding analysis, αTC1 cells. The class given is cell-based. The method, then:
as §3

The subject of data set [8] is Diabetic mice (BKS.Cg-Lepr^db/db). Put plainly: Blood glucose lowering in fed diabetic mice (Example 15). The class given is in vivo. The method, then: The animals were re-feed for 25 minutes 5 hours after drug administration and 35 minutes before the last time point of blood sample collection. The A Blood Glucose (mg/dl) was determined by calculating the difference between the measured blood glucose levels at any given time point and the initial blood glucose levels. The initial blood glucose levels were measured after feeding for 20 min and before the drug administration (time zero). The error bars represent standard deviations of measurements of eight mice.
The developed protein agent was tested to determine whether it had the in vivo capability of lowering blood glucose in diabetic subjects. Diabetic mice (BKS.Cg-Lepr^db/db, The Jackson Laboratory) were used as test subjects. A group of six animals first fasted for 6 hours. After fasting, the animals were fed for 30 minutes. The protein agent was administered after feeding by intraperitoneal injection at a dose of 25 nmole/kg. The animals were fed again for 30 mins, 5 hrs after agent administration. Blood samples were taken at different time points after administration of the agent. Glucose concentration in the blood samples was measured using a commercially available kit.

Data set [9] relates to diabetic mice. Put plainly: Blood glucose and glucose-dependent insulin secretion after co-administration with glucose (Example 16). The class given is in vivo. The following applies: 25 nmole/kg agent with 15 mmole/kg glucose i.p. The method, then: FIG. 12 is a pair of graphs showing the changes in Δ blood glucose (Upper panel) and Δ insulin (bottom panel) in a group of 8 diabetic mice at different time points after injection of 15 mmole/kg of glucose with 25 nmole/kg of different agents.
The effects of the developed agent on blood glucose lowering and stimulating of the glucose-dependent insulin secretion in diabetic mice were also examined. The animals first fasted for 6 hours. The protein agent (25 nmole/kg) and glucose (15 mmole/kg) were co-administrated via intraperitoneal injection with a group of eight diabetic mice. The blood glucose and insulin levels were measured at different time points. As controls, the same dose of glucose was administrated alone and co-administrated with the parental protein calbindin in separate groups of diabetic mice.

Data set [10] deals with diabetic mice. Put plainly: Four week daily treatment, blood glucose and body weight (Example 19). Conditions: 25 nmole/kg i.p. daily for 4 weeks. The class given is in vivo. The method, then: Agents (indicated in the figures 25 nmole/kg) were administrated by i.p. at daily at the same time 2:00 pm for 4 weeks. The animals were returned to the ages. Blood samples (about […]) were draw daily at 5:00 pm for 4 weeks. Glucose in blood samples was measured. Blood glucose levels were plotted against day. Animal body weight was weighed daily before drawing blood. Average body weight of each group of six mice was plotted against days.
The effects of the developed agent and PEGylated agents on blood glucose lowering in diabetic mice were examined in a four week treatment course. Agents (indicated in the figures at 25 nmole/kg) were administrated by i.p. daily at the same time 2:00 pm for 4 weeks. The animals were returned to the ages. Blood samples (−20 μl) were draw daily at 5:00 pm for 4 weeks. Glucose in blood samples was measured. Blood glucose levels were plotted against day. Animal body weight was weighed daily before drawing blood. Average body weight of each group of six mice was plotted against days.

In data set [11] the test system is CD-1 mice. Put plainly: Toxicity in healthy CD-1 mice. The class given is in vivo. Conditions: one or two doses of 100 μl (6 mM), 14 days. The method, then:
One group of mice (7 mice per group) were injected with one dose of 100 μl of the agent (6 mM) and another group of animals were injected with two doses of the agent (100 μl of agent (6 mM)) with 8 hours time interval between the two injections. The animals were returned to their cages for 14 days. Among 14 tested mice, no mouse died. All animals behaved normally (no change in eating habits. No abnormal weight gain or loss. No abnormal appearance on fur).

B1: Cal.GLP: GLP-1 grafted into human calbindin D9k by replacing a C-terminal helix; SEQ ID NO: 14 (protein)
chain: MSTKKSPEELKRIFEKYAAKEGDPDQLSKDELKLLIQAEFPSLLKGPNTLDDLFQELDKNGHAEGTFTSDVSSYLEGQAAKEFIAWLVKGRG
modifications: Fusion protein Cal.GLP
Regarding B1, the “degradation in mice serum” value in [1] is given as “no degradation”. Also, the “integrity after incubation with human serum” value in data set [2] is given as “remained intact”. For the same molecule, the “folding in different pH conditions” value in data set [3] was “remained folded in wide ranges of pH conditions”. For the same molecule, the “integrity and folding after boiling” value in data set [4] was “remained intact and folded”. In addition, the “binding to RINm5F cells” value in [5] is on record as “bound to RINm5F cells”. Also, the “binding to CHO cells” value in [6] is reported as “not CHO cells”. Moreover, the “binding to αTC1 cells” value in data set [7] is “not to αTC1 cells”. Moreover, the “blood glucose decrease and effective time compared to exendin-4” value in [8] (25 nmole/kg i.p.) was “bigger blood glucose decrease and significantly longer effective time”. In [8] (25 nmole/kg i.p., 4 hour time course), the “drop of blood glucose levels” value is “about 215 mg/dl”. In addition, the “blood glucose levels after re-feed” value in [8] (6 hours post administration, one hour after re-feed) is on record as “minor increase in blood glucose levels”. Besides, in data set [9], the “blood glucose lowering post glucose and drug administration” value was “dramatic blood glucose lowering”; the “duration of increase in insulin and decrease in glucose” value was about 2 h; the “glucose lowering and duration compared to exendin-4” value is reported as “larger glucose lowering in longer duration”. Further, in [10], the body weight change result was “did not result significant weight gain or lose”; the “lowering and stabilizing the blood glucose” value was “stronger effects in lowering and stabilizing the blood glucose”. In addition, the acute toxicity entry in data set [11] was “did not have acute toxicity”. The mortality result in [11] (14 mice) is “no mouse died”.
